Assay results as given in publication PMC8699845.

How the values were obtained:
[1] = biological target: WIF domain of human WIF1 protein (human) (UniProt Q9Y5W5); assay: SPR; BIACORE X; WIF1 or WIF domain amine-coupled to CM5 chip, rhShh injected at 20 µL/min; 20 mM Tris, 150 mM NaCl, 5 mM EDTA, 0.005% Tween 20, 100 µM CHAPS, pH 7.4; 1:1 Langmuir fit
[2] = biological target: Recombinant human Wnt Inhibitory Factor 1 (human) (UniProt Q9Y5W5); assay: as above
[3] = biological target: dually lipidated recombinant human sonic hedgehog (human)

UniProt Q9Y5W5, sequence (Q9Y5W5 29-379): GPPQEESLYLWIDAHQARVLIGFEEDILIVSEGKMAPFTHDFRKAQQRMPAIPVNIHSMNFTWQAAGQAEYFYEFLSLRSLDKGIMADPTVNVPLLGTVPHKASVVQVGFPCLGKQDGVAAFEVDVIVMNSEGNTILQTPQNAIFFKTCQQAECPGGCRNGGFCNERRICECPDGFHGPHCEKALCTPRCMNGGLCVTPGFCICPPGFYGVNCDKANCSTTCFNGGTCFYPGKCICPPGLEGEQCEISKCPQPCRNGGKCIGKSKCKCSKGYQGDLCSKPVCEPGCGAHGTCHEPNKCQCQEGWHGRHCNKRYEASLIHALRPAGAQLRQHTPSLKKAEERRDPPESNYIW

| Molecule | Kd [1] | koff [1] | kon [1] | Kd [2] | koff [2] | kon [2] | Gli luciferase reporter in Gli Reporter-NIH3T3 cells; inhibition of the signaling activity of 0.2 nM rhShh preincubated with 0-50 nM WIF domain; EC50 [3] |
| --- | --- | --- | --- | --- | --- | --- | --- |
| dually lipidated recombinant human sonic hedgehog (ligand) | 1.18 nM | 5.03e-05 s⁻¹ | 42600 M⁻¹ s⁻¹ | 2.06 nM | 0.000141 s⁻¹ | 68500 M⁻¹ s⁻¹ |  |
| WIF domain of human WIF1 protein (domain or fragment) LWIDAHQARVLIGFEEDILIVSEGKMAPFTHDFRKAQQRMPAIPVNIHSMNFTWQAAGQAEYFYEFLSLRSLDKGIMADPTVNVPLLGTVPHKASVVQVGFPCLGKQDGVAAFEVDVIVMNSEGNTILQTPQNAIFFKTC |  |  |  |  |  |  | 2.75 nM |
